We go through one sequence from patent US20250197461A1, “Insect-derived short peptide for improving abscisic acid (ABA) content in cruciferous plant” (Gannan Normal University, priority 2023, published 2025).

In the test the target is T1, zeaxanthin epoxidase aba1 (Arabidopsis thaliana, UniProt Q9FGC7).
T1 construct: expressed in transfected cells; host or cells: Y2HGold yeast (Saccharomyces cerevisiae)
T1 sequence (Q9FGC7 60-667): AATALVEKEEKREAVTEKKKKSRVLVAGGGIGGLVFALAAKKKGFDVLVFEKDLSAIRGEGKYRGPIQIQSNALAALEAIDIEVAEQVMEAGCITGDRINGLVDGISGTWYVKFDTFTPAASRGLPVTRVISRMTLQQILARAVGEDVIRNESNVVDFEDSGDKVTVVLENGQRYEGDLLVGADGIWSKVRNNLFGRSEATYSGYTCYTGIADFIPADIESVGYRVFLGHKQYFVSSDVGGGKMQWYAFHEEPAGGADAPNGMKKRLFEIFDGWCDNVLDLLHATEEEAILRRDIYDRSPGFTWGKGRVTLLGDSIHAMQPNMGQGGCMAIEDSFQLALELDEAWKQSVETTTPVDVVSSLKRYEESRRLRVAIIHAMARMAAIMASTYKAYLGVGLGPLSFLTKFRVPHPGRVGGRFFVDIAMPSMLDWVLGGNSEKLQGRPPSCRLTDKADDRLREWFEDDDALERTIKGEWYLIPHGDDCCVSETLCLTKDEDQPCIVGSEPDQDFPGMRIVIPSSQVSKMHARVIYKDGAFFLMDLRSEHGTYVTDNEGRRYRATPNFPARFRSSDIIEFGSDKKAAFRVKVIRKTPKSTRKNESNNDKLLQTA
As to the kind of experiment: Yeast two-hybrid interaction of GSS1 and its variants with aba1. The note with it: Y2HGold yeast, TDO/QDO with x-α-gal. In kind it is binding. An excerpt: A Y2HGold yeast transformant containing the correct pGBKT7-GSS1 bait plasmid was used as a recipient strain to prepare competent cells, and a library plasmid extracted from the yeast library was transferred into the competent cells, and coated on the SD-Trp-Leu-His+5 mM3AT plate. […]

Regarding “PDYKQKLRDSKAWESLETIGIPLDADVM (insect-derived short peptide) [GSS1-PI]”, the “interaction with aba1 (yeast two-hybrid)” value is recorded as “interacted with aba1”.
